Experimental data published in patent publication US20190352359A1.

Target: HLA-A*24
Test: UV peptide-exchange ELISA (anti-b2m); yield grade ++ = >20%

B1: COL10-002 (peptide)
peptide: TQFFIPYTI
modifications: not checked
peptide exchange yield: 20 to 50%
